# Assays:
# Assay in all cases: MST
# DLA2 ΔCat 462 = DLA2 ΔCat 462 (Chlamydomonas reinhardtii, UniProt A0A2K3DW88 32-461)
# DLA2 WT (MST) = DLA2 WT (MST) (Chlamydomonas reinhardtii, UniProt A0A2K3DW88 32-494)
# DLA2 ΔE3B = DLA2 ΔE3B (Chlamydomonas reinhardtii, UniProt A0A2K3DW88 32-184+=VD+224-494, internal_change)
# DLA2 ΔCat 315 = DLA2 ΔCat 315 (Chlamydomonas reinhardtii, UniProt A0A2K3DW88 32-314)
# DLA2 ΔCat 450 = DLA2 ΔCat 450 (Chlamydomonas reinhardtii, UniProt A0A2K3DW88 32-449)
# PratA = target: T1, PratA (Synechocystis sp. PCC 6803, UniProt P73091 39-383)
# T1 sequence: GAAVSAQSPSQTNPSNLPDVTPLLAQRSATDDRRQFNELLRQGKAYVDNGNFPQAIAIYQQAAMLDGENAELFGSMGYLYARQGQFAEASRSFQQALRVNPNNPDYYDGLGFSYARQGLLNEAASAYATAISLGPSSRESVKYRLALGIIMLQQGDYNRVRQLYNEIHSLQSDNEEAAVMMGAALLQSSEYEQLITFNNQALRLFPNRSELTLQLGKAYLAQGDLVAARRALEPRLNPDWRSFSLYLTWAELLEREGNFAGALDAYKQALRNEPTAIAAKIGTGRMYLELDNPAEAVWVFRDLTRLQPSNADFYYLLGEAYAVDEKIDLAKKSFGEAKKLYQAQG
# DLA2 ΔCat 394 = DLA2 ΔCat 394 (Chlamydomonas reinhardtii, UniProt A0A2K3DW88 32-393)
# DLA2 ΔLip = DLA2 ΔLip (Chlamydomonas reinhardtii, UniProt A0A2K3DW88 116-494)
# DLA2 ΔCat = DLA2 ΔCat (Chlamydomonas reinhardtii, UniProt A0A2K3DW88 32-269)
binder,measurement,setting,value
UUUACGGAGAAAUUAAAACUUUCCCCCCCCCCCCAUAUGACCAUGGAUC (ssRNA) [psbA 5'-UTR C-stretch probe],Kd,DLA2 ΔCat 462,625 ± 75 nM
same,Kd,DLA2 WT (MST),248 ± 54 nM
same,Kd,DLA2 ΔE3B,244 ± 43 nM
UUUACGGAGAAAUUAAAACUUUAAAAAAAUUAACAUAUGACCAUGGAUC (ssRNA) [psbA 5'-UTR probe native],Kd,DLA2 ΔCat 462,427 ± 55 nM
same,Kd,DLA2 ΔCat 315,607 ± 82 nM
same,Kd,DLA2 ΔCat 450,466 ± 65 nM
same,binding result,PratA,no binding
same,Kd,DLA2 ΔCat 394,558 ± 77 nM
same,Kd,DLA2 ΔLip,107 ± 20 nM
same,Kd,DLA2 ΔCat,911 ± 60 nM
same,Kd,DLA2 WT (MST),106 ± 24 nM
same,Kd,DLA2 ΔE3B,241 ± 21 nM

# — publication doi:10.1101/831339
